In IntAct's records for PubMed 24268649:

target: ncor2_human NCOR2 (UniProt Q9Y618)
Sequence (Q9Y618 whole entry): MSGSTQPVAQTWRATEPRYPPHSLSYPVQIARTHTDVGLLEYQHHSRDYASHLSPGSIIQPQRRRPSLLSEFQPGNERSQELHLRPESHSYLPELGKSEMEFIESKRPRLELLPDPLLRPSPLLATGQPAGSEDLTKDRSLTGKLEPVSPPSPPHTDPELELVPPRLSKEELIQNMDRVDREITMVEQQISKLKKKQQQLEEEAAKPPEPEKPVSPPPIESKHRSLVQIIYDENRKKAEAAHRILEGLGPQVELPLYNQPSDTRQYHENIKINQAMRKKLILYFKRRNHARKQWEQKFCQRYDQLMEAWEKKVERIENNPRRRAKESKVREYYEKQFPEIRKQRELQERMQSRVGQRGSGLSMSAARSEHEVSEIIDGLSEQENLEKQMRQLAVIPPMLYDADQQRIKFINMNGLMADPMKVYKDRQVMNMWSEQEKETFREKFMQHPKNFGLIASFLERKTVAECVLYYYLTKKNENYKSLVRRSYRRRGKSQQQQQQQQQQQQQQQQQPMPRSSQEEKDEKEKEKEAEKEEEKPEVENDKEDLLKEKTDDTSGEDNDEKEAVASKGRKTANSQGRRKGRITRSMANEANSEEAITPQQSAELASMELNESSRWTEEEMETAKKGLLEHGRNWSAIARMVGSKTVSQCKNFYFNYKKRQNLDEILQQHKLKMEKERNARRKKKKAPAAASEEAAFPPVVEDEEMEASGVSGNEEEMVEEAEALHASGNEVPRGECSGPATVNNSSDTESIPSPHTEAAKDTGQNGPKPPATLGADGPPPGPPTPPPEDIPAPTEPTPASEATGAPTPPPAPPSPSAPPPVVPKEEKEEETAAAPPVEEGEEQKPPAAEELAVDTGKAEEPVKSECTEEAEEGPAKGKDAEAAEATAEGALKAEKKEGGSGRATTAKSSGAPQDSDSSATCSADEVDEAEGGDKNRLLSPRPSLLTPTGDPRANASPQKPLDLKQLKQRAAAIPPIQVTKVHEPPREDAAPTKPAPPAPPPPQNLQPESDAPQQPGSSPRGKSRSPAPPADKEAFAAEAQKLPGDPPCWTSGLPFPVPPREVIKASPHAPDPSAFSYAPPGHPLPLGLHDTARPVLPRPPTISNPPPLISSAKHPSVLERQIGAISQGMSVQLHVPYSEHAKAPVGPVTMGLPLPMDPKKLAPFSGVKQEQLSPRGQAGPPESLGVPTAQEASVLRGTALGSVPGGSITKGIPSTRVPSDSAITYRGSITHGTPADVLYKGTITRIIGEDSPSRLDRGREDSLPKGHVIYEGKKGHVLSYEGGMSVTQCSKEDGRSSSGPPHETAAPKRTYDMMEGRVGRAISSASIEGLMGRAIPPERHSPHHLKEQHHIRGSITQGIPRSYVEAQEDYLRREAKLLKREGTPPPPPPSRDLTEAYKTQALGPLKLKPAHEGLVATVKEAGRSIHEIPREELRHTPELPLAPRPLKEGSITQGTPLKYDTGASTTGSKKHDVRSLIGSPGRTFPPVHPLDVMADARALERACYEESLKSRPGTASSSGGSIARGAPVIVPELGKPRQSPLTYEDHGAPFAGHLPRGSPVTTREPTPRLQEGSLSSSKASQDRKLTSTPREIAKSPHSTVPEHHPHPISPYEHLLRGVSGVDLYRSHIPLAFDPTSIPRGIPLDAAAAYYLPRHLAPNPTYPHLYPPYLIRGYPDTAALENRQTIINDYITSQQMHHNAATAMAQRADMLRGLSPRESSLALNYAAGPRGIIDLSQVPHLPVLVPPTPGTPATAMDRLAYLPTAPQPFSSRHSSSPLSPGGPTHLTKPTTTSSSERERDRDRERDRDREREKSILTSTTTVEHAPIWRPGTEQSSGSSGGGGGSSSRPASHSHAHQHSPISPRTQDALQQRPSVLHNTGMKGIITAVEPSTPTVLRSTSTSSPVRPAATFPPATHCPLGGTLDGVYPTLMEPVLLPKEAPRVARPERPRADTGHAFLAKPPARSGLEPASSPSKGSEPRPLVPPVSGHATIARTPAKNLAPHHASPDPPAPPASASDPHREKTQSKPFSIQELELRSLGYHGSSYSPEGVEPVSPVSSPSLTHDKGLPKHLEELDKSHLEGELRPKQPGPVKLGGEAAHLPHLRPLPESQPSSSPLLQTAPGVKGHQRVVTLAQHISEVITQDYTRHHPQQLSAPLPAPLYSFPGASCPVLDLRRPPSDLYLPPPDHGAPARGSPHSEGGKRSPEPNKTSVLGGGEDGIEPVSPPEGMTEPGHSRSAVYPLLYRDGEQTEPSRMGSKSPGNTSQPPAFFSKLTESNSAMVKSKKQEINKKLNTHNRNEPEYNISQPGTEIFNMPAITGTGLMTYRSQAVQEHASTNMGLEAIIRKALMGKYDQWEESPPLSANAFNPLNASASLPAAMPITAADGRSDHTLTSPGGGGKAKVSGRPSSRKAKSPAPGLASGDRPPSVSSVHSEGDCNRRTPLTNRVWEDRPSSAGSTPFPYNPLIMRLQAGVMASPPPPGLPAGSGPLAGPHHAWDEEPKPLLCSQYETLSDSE

| effect of a mutation on the interaction | Substance |
| --- | --- |
| decreasing interaction strength | Msx2-interacting protein (Homo sapiens), Q96T58 Q3551A |
| disrupting interaction strength | Msx2-interacting protein (Homo sapiens), Q96T58 K3606A |
| decreasing interaction strength | Msx2-interacting protein (Homo sapiens), Q96T58 R3554A |

Further lines, the substance ahead of its results:

| Substance | effect of a mutation on the interaction |
| --- | --- |
| Msx2-interacting protein (Homo sapiens), Q96T58 K3516A | disrupting interaction strength |
| Msx2-interacting protein (Homo sapiens), Q96T58 Y3602A | decreasing interaction strength |
| Msx2-interacting protein (Homo sapiens), Q96T58 R3548A | decreasing interaction strength |
| Msx2-interacting protein (Homo sapiens), Q96T58 R3552A | disrupting interaction strength |
| Msx2-interacting protein (Homo sapiens), Q96T58 R3552K | decreasing interaction strength |
| Msx2-interacting protein (Homo sapiens), Q96T58 L3515A | decreasing interaction strength |
| Msx2-interacting protein (Homo sapiens), Q96T58 M3553A | decreasing interaction strength |
